This is an account of results in US10280218B2, “Antibodies binding to BMP4, and uses thereof” (ACADEMISCH MEDISCH CENTRUM, priority 2014, dated 2019).

Data set [1] relates to HT29 cells. As to the kind of experiment: Chemosensitivity / cell viability (Presto Blue). It is filed as cell-based, human. The method, then:
We wanted to determine whether this effect could be attributable to BMP4 that is being secreted by the cancer cells, and if therefore, could be inhibited by our BMP4-specific VHHs. A panel of colorectal cancer cells was tested for the presence of active BMPs in their conditioned media (FIG. 28A). To that end, the C2C12 cells were cultured with supernatants from different cancer cell lines. When normalized for the BMPs present in normal fetal calf serum, we found a high variability in BRE-luciferase activity across cell lines. […] One of those cell lines, HT29, was used to test the effect of BMP4 inhibition in terms of proliferation. No effect was observed when cultured with the VHHs or Noggin alone (data not shown).
HT29 cells were plated in 96-well plates at a density of 10,000 cells per well. […] The VHHs or Noggin were added at the same time at a concentration of 500 ng/ml. Cell viability was measured by adding the Presto Blue Reagent (Invitrogen) for 2 hours at 37° C., after which absorbance was measured at […].

In data set [2] the target is T1, BMP2 (human).
T1 chain: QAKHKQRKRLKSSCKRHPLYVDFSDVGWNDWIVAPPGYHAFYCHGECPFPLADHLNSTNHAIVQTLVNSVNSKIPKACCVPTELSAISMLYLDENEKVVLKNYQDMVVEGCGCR
As to the kind of experiment: SPR. Background: SPR reads the build-up and loss of mass on a sensor chip optically.

Data set [3] has as its target T2, BMP4 (human).
T2 chain: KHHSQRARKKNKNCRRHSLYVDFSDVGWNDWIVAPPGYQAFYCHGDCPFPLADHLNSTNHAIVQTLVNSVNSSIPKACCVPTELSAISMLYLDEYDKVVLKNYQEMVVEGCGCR
As to the kind of experiment: SPR.

The subject of data set [4] is patient-derived SMAD4 deficient tumors. As to conditions: FIG. 6 of Lombardo et al.; cited from earlier work.
Data set [5] addresses T3, BMP2 (Homo sapiens, UniProt P12643).
T3 sequence (P12643 283-396): T1 chain
As to the kind of experiment: Phosphorylation of SMAD1/5/8 in EPC2-hTERT cells (western blot). It is filed as cell-based. Conditions: 100 ng/ml BMP2, 4 hours; indicated concentrations. The method, then:
To detect phosphorylation of SMAD1/5/8 in vitro, EPC2-hTERTs were cultured in 24-well plates and activated with 100 ng/ml of BMP2, BMP4, BMP5, BMP6 or BMP7 (R&D Systems) for 4 hours with or without VHH at the indicated concentrations. After activation, each well was washed twice with ice-cold PBS and lysed with 100 μl M-PER lysis buffer (Sigma-Aldrich, MO, United States) containing Halt Protease and Phosphatase Inhibitor Cocktail (Thermo Scientific, Landsmeer, The Netherlands). Cell debris were pelleted and supernatant was collected. 15 μg of protein was then separated by 10% SDS-PAGE and transferred onto a PVDF membrane (Millipore, Amsterdam, The Netherlands). The blots were then blocked with 5% milk in Tris-buffered saline supplemented with 0.1% Tween-20 (TBST) for 1 hour at room temperature and washed in TBST before overnight incubation at 4° C. with antiphospho-SMAD1/5/8 (Cell Signalling), anti-βactin (Santa Cruz) or anti-GAPDH (Millipore) in 5% Bovine Serum Albumin (BSA). Blots were then washed with TBST and incubated for 1 hour at room temperature in 1:2000 horseradish peroxidase—conjugated secondary antibody in TBST. After a final wash with TBST, blots were incubated for 5 minutes in LumiGlow (BIOKE, Leiden, The Netherlands) and then chemiluminescence was detected using a Fuji LAS4000 illuminator (Fujifilm Medical Systems, Stamford, Conn.). Protein was quantitated with Image). […]
In general terms: In western blotting, separated proteins are transferred to a membrane and probed.

For data set [6], the target named is T4, BMP4 (Homo sapiens, UniProt P12644).
T4 sequence (P12644 293-408): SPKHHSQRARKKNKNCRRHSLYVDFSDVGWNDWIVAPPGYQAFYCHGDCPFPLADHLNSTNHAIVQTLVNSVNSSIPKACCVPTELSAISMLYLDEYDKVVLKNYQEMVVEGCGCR
The data set is described as above. It is filed as cell-based. As to conditions: 100 ng/ml BMP4, 4 hours; indicated concentrations. Also noted: purchased R&D Systems. The method, then: EPC2-hTERT cells were stimulated with mouse BMP4 and pSMAD activation detected by Western Blotting.
To detect phosphorylation of SMAD1/5/8 in vitro, EPC2-hTERTs were cultured in 24-well plates and activated with 100 ng/ml of BMP2, BMP4, BMP5, BMP6 or BMP7 (R&D Systems) for 4 hours with or without VHH at the indicated concentrations. After activation, each well was washed twice with ice-cold PBS and lysed with 100 μl M-PER lysis buffer (Sigma-Aldrich, MO, United States) containing Halt Protease and Phosphatase Inhibitor Cocktail (Thermo Scientific, Landsmeer, The Netherlands). Cell debris were pelleted and supernatant was collected. 15 μg of protein was then separated by 10% SDS-PAGE and transferred onto a PVDF membrane (Millipore, Amsterdam, The Netherlands). The blots were then blocked with 5% milk in Tris-buffered saline supplemented with 0.1% Tween-20 (TBST) for 1 hour at room temperature and washed in TBST before overnight incubation at 4° C. with antiphospho-SMAD1/5/8 (Cell Signalling), anti-βactin (Santa Cruz) or anti-GAPDH (Millipore) in 5% Bovine Serum Albumin (BSA). […] After a final wash with TBST, blots were incubated for 5 minutes in LumiGlow (BIOKE, Leiden, The Netherlands) and then chemiluminescence was detected using a Fuji LAS4000 illuminator (Fujifilm Medical Systems, Stamford, Conn.). Protein was quantitated with Image).

B1: hNoggin (protein)
chain: QHYLHIRPAPSDNLPLVDLIEHPDPIFDPKEKDLNETLLRSLLGGHYDPGFMATSPPEDRPGGGGGAAGGAEDLAELDQLLRQRPSGAMPSEIKGLEFSEGLAQGKKQRLSKKLRRKLQMWLWSQTFCPVLYAWNDLGSRFWPRYVKVGSCFSKRSCSVPEGMVCKPSKSVHLTVLRWRCQRRGGQRCGWIPIQYPIISECKCSC
One may read the Kd as the concentration at which binding is half-saturated. On to B1, for which the “chemosensitivity (cell viability) in combination with Carboplatin, 5′FU or Oxaliplatin” value in data set [1] (500 ng/ml, 48 hours) is “not as effective as observed for C4C4 or C8C8”. In addition, the “effect on HT29 proliferation, alone” value in data set [1] (without chemotherapy (data not shown)) is reported as “No effect”. Besides, the Kd stood at 0.961 nM in data set [2] and 0.091 nM in data set [3]. In data set [4], the “growth of SMAD4 deficient tumors after treatment” value is listed as “generated tumors that grew faster instead of slower”.

B2: C8E7: E7 linked to C8, hetero-dimer VHH bihead (protein)
chain: EVQLVESGGGLVQAGGSLRLSCAASGRTFRINDMGWYRQAPGKSRDMVARITSGGNTNYADSVKGRFTISRDNAKNTVYLQMNSLKPEDTAVYYCNADGLRFDSTRYRPFDSWGQGTQVTVSSGGGGSGGGGSEVQLVESGGGLVQAGGSLRLSCAASGSIRGFVAMAWYRQAPGKQREWVATVTNGGTLYGDSVKGRFTGSRDNAKNTVYLQMNSLKPEDTAVYYCALRQIGASGYDYWGQGTQVTVSS
In the case of B2, the “inhibition of BMP2 signaling (pSMAD1/5/8), dimer compared to monomer” value in data set [5] is “better at inhibiting both BMP2 and BMP4 as compared to the E7 monomer”. In data set [6], the “inhibition of BMP4 signaling (pSMAD1/5/8), dimer compared to monomer” value is “better at inhibiting both BMP2 and BMP4 as compared to the E7 monomer”.
